One experiment addresses MDM2 (UniProt Q00987). As to the kind of experiment: cell-based or functional assay.
Experiment [1] concerns the target HPV16 E6 (human papillomavirus type 16 (HPV16)) (UniProt P03126). Description: cell-based or functional assay.

Sequence of exogenous CH1 domain of p300 (pcDNA3.1/CH1) (Q09472 whole entry, the tested form may be a part): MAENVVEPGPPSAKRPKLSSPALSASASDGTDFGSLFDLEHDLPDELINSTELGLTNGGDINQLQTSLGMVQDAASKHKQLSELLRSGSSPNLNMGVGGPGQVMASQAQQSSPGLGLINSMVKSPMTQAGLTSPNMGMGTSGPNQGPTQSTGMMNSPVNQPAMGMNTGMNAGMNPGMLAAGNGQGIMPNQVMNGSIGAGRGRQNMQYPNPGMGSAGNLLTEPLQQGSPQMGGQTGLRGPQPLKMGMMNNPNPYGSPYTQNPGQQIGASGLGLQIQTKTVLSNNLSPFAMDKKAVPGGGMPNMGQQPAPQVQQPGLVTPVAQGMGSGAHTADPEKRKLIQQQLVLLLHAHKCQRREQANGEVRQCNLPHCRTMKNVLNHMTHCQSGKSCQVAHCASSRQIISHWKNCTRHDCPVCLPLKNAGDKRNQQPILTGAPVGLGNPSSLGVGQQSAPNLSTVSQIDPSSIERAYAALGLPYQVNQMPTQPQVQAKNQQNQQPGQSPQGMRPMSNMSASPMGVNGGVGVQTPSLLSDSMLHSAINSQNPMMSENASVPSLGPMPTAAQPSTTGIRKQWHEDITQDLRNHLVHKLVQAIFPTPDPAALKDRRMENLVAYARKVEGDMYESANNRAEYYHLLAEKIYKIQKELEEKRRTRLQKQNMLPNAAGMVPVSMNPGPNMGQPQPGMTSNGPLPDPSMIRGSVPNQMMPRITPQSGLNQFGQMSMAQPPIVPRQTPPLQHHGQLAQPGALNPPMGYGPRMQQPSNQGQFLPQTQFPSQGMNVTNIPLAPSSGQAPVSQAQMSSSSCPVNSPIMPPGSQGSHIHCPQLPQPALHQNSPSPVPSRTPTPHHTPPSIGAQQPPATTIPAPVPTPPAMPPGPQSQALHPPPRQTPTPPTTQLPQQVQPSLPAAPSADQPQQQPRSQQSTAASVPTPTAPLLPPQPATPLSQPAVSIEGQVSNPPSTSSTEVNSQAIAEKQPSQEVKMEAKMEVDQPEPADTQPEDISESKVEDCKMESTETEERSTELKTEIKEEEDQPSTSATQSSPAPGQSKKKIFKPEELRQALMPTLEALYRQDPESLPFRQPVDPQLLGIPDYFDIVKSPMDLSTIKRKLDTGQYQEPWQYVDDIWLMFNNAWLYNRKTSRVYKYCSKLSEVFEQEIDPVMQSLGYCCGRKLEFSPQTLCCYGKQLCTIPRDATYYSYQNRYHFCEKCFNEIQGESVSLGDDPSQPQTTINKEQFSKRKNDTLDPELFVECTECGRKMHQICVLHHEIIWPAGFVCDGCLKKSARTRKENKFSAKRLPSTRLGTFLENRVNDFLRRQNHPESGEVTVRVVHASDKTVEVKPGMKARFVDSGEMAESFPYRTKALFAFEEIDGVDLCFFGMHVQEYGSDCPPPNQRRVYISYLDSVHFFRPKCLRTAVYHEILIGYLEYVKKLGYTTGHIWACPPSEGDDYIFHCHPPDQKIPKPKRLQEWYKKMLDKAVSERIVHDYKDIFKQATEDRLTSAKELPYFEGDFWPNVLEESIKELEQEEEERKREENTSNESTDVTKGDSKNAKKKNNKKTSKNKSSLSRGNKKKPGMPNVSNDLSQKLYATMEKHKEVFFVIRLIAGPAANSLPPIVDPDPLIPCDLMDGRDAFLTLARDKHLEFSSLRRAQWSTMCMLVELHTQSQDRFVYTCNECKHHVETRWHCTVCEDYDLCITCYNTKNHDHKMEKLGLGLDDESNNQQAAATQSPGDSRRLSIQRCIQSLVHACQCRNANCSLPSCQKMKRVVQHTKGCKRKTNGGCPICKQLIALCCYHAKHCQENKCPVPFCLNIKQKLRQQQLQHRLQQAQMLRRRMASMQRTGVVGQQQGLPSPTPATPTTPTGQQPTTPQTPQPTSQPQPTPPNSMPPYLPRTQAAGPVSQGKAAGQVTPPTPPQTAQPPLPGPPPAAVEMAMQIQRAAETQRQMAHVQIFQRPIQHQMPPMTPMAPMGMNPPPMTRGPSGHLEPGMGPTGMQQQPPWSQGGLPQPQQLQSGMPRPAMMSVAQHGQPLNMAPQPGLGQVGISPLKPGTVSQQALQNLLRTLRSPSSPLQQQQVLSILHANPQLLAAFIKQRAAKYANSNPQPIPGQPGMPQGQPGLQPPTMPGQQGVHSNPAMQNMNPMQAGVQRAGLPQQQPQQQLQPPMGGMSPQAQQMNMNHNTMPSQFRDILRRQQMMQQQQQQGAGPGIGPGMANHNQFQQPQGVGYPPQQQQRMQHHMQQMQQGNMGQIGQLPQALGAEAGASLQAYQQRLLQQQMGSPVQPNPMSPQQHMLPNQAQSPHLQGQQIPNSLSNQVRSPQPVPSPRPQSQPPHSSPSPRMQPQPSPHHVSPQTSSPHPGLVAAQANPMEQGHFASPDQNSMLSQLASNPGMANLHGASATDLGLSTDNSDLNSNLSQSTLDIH
Sequence of HPV16 E6 (human papillomavirus type 16 (HPV16)) (P03126 whole entry): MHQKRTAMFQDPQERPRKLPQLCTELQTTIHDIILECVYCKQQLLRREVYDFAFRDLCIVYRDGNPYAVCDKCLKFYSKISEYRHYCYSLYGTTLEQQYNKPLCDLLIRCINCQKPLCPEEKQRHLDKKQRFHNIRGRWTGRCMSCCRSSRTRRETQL
Sequence of MDM2 (Q00987 whole entry): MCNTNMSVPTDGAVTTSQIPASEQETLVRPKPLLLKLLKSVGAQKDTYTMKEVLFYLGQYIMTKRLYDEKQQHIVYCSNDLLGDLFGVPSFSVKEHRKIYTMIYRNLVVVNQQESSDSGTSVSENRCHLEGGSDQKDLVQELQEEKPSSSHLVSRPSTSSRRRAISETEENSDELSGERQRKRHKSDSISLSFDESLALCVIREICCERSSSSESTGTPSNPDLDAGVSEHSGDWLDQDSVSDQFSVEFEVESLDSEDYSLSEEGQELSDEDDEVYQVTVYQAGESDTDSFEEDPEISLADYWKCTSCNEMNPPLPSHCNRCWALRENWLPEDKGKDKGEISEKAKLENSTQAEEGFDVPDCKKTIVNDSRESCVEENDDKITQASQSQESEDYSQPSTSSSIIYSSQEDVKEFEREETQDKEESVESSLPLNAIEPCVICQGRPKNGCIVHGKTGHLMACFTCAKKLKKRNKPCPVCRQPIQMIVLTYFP

In the experiment with MDM2, “exogenous CH1 domain of p300 (pcDNA3.1/CH1) (from UniProt Q09472 332-417)” yielded a p53 transcription activity (luciferase reporter), UMSCC74A/CH1 compared to UMSCC74A/empty cells of 68%. In experiment [1], this substance yielded a p53 transcription activity (luciferase reporter), UMSCC47/CH1 cells of 85% and a p53 transcription activity (luciferase reporter), UPCI:SCC090/CH1 cells of 50%.

Values taken from US20140220159A1.
